Source: the supplement of paper PMC7125110
± gives the standard error. Variants at the floor of the assay were thinned out.

B1: glmS ribozyme (parent)
chain: AUAAAAGCGCCAGAACUACAGAAAUGUAGUUGACGAGGAGGAGGUUUAUCGAAUUUUCGGCGGAUGCCUCCAAA

Columns and labels:
Conditions in all cases: with glucosamine-6-phosphate
glucosamine-6-phosphate [1] = variants of: B1; assay: self-cleavage kobs at 640 uM GlcN6P; higher = faster cleavage; RNA array
In short: (§1)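 Tracking of barcoded ribozyme variants used a hybridised Cy3 probe at 37 °C, after in situ transcription by E. coli RNA polymerase on sequenced MiSeq chips. The flowed solution held 40 μM to 10 mM glucosamine-6-phosphate in HEPES/KCl/Mg(OAc)2 buffer, and imaging ran over ~14 h. kobs was taken from exponential decay fits of normalised per-tile medians, and kcat and KM from weighted Michaelis–Menten fits.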

glucosamine-6-phosphate [2] = variants of: B1; assay: self-cleavage kobs at 2500 uM GlcN6P; higher = faster cleavage; RNA array
In short: as §1

glucosamine-6-phosphate [3] = variants of: B1; assay: self-cleavage kobs at 10000 uM GlcN6P; higher = faster cleavage; RNA array
In short: as §1

| Variant | self-cleavage kobs at 640 uM GlcN6P (glucosamine-6-phosphate [1]) [s⁻¹] | self-cleavage kobs at 2500 uM GlcN6P (glucosamine-6-phosphate [2]) [s⁻¹] | self-cleavage kobs at 10000 uM GlcN6P (glucosamine-6-phosphate [3]) [s⁻¹] |
| --- | --- | --- | --- |
| G32C G44C A48C C67G | < 1e-05 | < 1e-05 |  |
| U30G U55A | 0.0024 ± 0.00049 | 0.00295 ± 0.00084 |  |
| G29C U55G C71A | 0.000503 ± 0.00015 | 5.43e-05 ± 1.3e-05 |  |
| A33C G35A U46A | < 1e-05 |  |  |
| G29U C34U U55A | < 1e-05 | < 1e-05 |  |
| G35A C50U C67G C70U | < 1e-05 |  |  |
| C34U G43U G59C | < 1e-05 | < 1e-05 |  |
| G35C G43U G60C | < 1e-05 |  | < 1e-05 |
| A33U U45C C50A | < 1e-05 | < 1e-05 |  |
| U31A G32A G59U G62A | < 1e-05 |  |  |
| A33U C50G G51A | < 1e-05 |  |  |
| G32A A48U U65C | < 1e-05 |  |  |
| U31A A52G U69G | 7.54e-05 ± 3.6e-05 | 7.91e-05 ± 2.3e-05 |  |
| A28C | 0.0103 ± 0.0026 |  | 0.0679 ± 0.022 |
| G29U G66C | 4.59e-05 ± 1.9e-05 | 9.16e-05 ± 2.9e-05 |  |
| G32A G66U C68G | 0.000111 ± 3.9e-05 |  |  |
| U31C G35C G38U | < 1e-05 |  |  |
| G32U U47A A53G U56A C71U | 7.91e-05 ± 2.4e-05 | 0.000259 ± 6.2e-05 |  |
| G21U U30A | 0.00112 ± 0.00029 | 0.000247 ± 0.00012 | 0.00354 ± 0.00075 |
| A36C G51A C71G | 6.03e-05 ± 2.2e-05 |  |  |
| U30G U45A G59C | < 1e-05 | < 1e-05 |  |
| A33C A53U G59A U69G | 0.000208 ± 8.8e-05 |  |  |

| Variant | self-cleavage kobs at 640 uM GlcN6P (glucosamine-6-phosphate [1]) [s⁻¹] | self-cleavage kobs at 2500 uM GlcN6P (glucosamine-6-phosphate [2]) [s⁻¹] | self-cleavage kobs at 10000 uM GlcN6P (glucosamine-6-phosphate [3]) [s⁻¹] |
| --- | --- | --- | --- |
| U30A A48C C58A G60A | < 1e-05 |  |  |
| U31A U47C U54G | 0.000284 ± 6e-05 | 0.00068 ± 0.00013 |  |
| G32A U57G U69G | 0.000252 ± 0.00011 |  |  |
| U30A G40A C50U | < 1e-05 | < 1e-05 |  |
| C34A G41A | < 1e-05 | < 1e-05 |  |
| U30G A42G U45C C70A C71A | < 1e-05 |  |  |
| A36C A39C A52U | < 1e-05 |  |  |
| C34G G41C C71U | < 1e-05 |  |  |
| U17G G63A | < 1e-05 | < 1e-05 |  |
| U30G A53G C67U | 0.000643 ± 0.00013 | 0.00132 ± 0.00032 |  |
| G29A G44U U54A U57A C61U C68A | < 1e-05 | < 1e-05 |  |
| U31C G60A U69A | < 1e-05 |  |  |
| A33C C34A U57G | < 1e-05 |  |  |
| G29C U47A C50A | < 1e-05 |  | < 1e-05 |
| G29U A33U U56A A64G | < 1e-05 |  |  |
| C34A A53G U56C | < 1e-05 |  |  |
| U30G G37A A53G | 0.000102 ± 2.5e-05 |  |  |
| G35A U55G G63A A64G | < 1e-05 |  |  |
| G32A U49G C58G G63U U69G | 0.000279 ± 9.2e-05 | 0.000153 ± 3.7e-05 |  |
| G35A U47A C50G U54G | 0.000171 ± 6.3e-05 | 0.000152 ± 4.7e-05 |  |
| C34U G51C U54A | < 1e-05 | < 1e-05 |  |
| U31C G43A | < 1e-05 | < 1e-05 |  |

| Variant | self-cleavage kobs at 640 uM GlcN6P (glucosamine-6-phosphate [1]) [s⁻¹] | self-cleavage kobs at 2500 uM GlcN6P (glucosamine-6-phosphate [2]) [s⁻¹] | self-cleavage kobs at 10000 uM GlcN6P (glucosamine-6-phosphate [3]) [s⁻¹] |
| --- | --- | --- | --- |
| C34U G35C C50U C67A | < 1e-05 | < 1e-05 |  |
| G32U A64C C71A | < 1e-05 | < 1e-05 |  |
| U30A C71G | 0.000371 ± 0.00016 | 0.000129 ± 5.8e-05 | 0.00032 ± 7.6e-05 |
| G29A C34U G60U | < 1e-05 |  |  |
| G29C G40C C58G | < 1e-05 |  |  |
| G35C G44C | < 1e-05 |  | < 1e-05 |
| G32C G63A U65A | < 1e-05 | < 1e-05 |  |
| G35A G44A | < 1e-05 | < 1e-05 | < 1e-05 |
| G32U U56A C68G | 0.000222 ± 9e-05 |  |  |
| G29C U45A C67A | 0.000165 ± 4.8e-05 |  |  |
| G29A C50U C68A | 4.21e-05 ± 1.6e-05 |  |  |
| A33C G44U C71A | < 1e-05 | < 1e-05 |  |
| U30G U45C C71A | 3.43e-05 ± 1.1e-05 | 8.42e-05 ± 2e-05 |  |
| G32C A33G U47A U54C A64C C71U | < 1e-05 | < 1e-05 |  |
| C34U U47C | < 1e-05 | < 1e-05 | < 1e-05 |
| A33C U54G C71U | 7.35e-05 ± 2.2e-05 | 0.000178 ± 4.9e-05 |  |
| A33G A36U G38C | < 1e-05 |  |  |
| A33C U47G A48C | < 1e-05 | < 1e-05 | < 1e-05 |
| G35A U65C U69C | < 1e-05 |  |  |
| U31G U49G C67A | 4.09e-05 ± 1.4e-05 |  |  |
